Measured values as given in article PMC3035450.

Biological target: thrombin (UniProt P00734;P00734 328-363;364-622)
Assay: SPR

## GGTTGGTGTGGTTGG (structured_DNA, UNA-G at 5) [G5]
  Kd: 425 ± 17.7 nM

## GGTTGGTGTGGTTGG (structured_DNA, UNA-G at 6) [G6]
  Kd: 287 ± 12.3 nM

## GGTTGGTGTGGTTGG (structured_DNA) [TBA]
  Kd: 103 ± 5.1 nM

## GGTTGGTGTGGTTGG (structured_DNA, UNA-G at 10) [G10]
  Kd: 222 ± 9.3 nM

## GGTTGGTGTGGTTGG (structured_DNA, UNA-G at 2) [G2]
  Kd: 298 ± 5.7 nM

## GGTTGGTGTGGTTGG (structured_DNA, UNA-G at 1) [G1]
  Kd: 95.4 ± 3.9 nM

## GGTTGGTGTGGTTGG (structured_DNA, UNA-G at 15) [G15]
  Kd: 155 ± 7.4 nM

## GGTTGGTGTGGTTGG (structured_DNA, UNA-G at 8) [G8]
  Kd: 913 ± 21.2 nM
